{"source": "the DeepSol protein solubility set"}
{"assay": "soluble on expression in E. coli; label from the status in PepcDB or PDB records"}
{"sequence": "MAHHHHHHMILHGALSQERDRLLSSYLKSPITLSFPPPLPLLALPSPPSFFVYKKNVFFFRLGMGDARSASSKASSPSCVLAATPRDFGRSAEPGDSPRPPIIAVLYRPGQAKRERQPARGGRGGGQRRLVSYFLPALAAHVRHGKQWTTYPLSFLYPYRPSHSLSTPPHTPSIITDPRITRRKLASVLSLFYLQSVTMMASGGDEQLDALVDSILQSSDHLGSIDQITQRLPSPQQQQLSNPAFTSSTQQREHTSSDSHDTGVRAHMHAVSPGGSSSSVGNFVVAVPAAHHASASTSRATATHLDTEDGEKGEEEDDLSALVERILAGPGVRGRPSTSSASSPRFSQVPPPHIGNSGATSTSGLKGATRVKGGSSSLSRTFGAGPASPNARMQAVVRRLTLWYERKEAKRVQAVYEALEREQLDCTFEPRINRLGVEVGGSVVVDEDDRPLHRRHYSADEYPRRSSASSKARGSSGSRAVSHTNTISMSSSSSRVTPHVCEYIPSLQPPSQPITGADAFVERLRRAQDERDTVREAEEAKRLHYYDPTTFRRDLTVPVPFEFVETRPRRLAAAMTAAAGGSPSRGPGDIVGVTRTSIPPFSARAAALAACGDAGATPPRPAEDGFRDVNEDKRLTPENTFLSLAPHIRETLLFDRQMELQLRRATDSVRRVTRGE", "soluble on expression in E. coli": "not soluble"}
{"sequence": "MRFAVLGSGSQGNGTLIASGDTFILVDCGFSLRETERRLALLGVSAAQLSAVLVTHEHADHVHGVGLLSRRYNVPVYLSQGTLRGMRKPVEVAGFLACGQSLHIGSLEVTAARVEHDAYEPLQYVVSDGKRRFGMLTDLGSYDALLLERYQGLDALLIEANHCRDLLARGHYPAFLKQRVGGMQGHLNNHQAARLVHELGWNNLQHLVLAHLSSKNNLPHLARQCFVDTLGCDPDWLQVANQEHGLDWREIALEHHHHHH", "soluble on expression in E. coli": "soluble"}
{"sequence": "MATIDLQKKSVKIVLEKKQLTKVTARVGLVLDITGSMRPLYKNGTVQNVVERILAVADQFDDNGLLDVWVYDNEFPRLKPVSEKDFPGYVDREILNNDRLHKFGRNDEPPVMKDVLRNMLRRNRARILLSLFLSMTGAVKSQSNRLIEASSDKPVFWQFVGIGNGNFDFLNKLDTLEGRVIDNTNFLHIEEIDRISDDELYDALLAEFPFWLKEAKEKGIVREQEPPAEKPKKKGFFSRLFSKLEHHHHHH", "soluble on expression in E. coli": "soluble"}
{"sequence": "MNTKKEIKFIEEIKGLVPKKLGKIYTSSIIEKDSKRLTINLKKVDALPKCGLIGAPDVCVKITLTQGAKTQTKSSRVIKNTCSAVYNEAVMFLCGTSKNDLAQTSIVISVHDAQRTCTGDDTIGCAYLGIGAVDKSEIDQWKGTTEHLGKEYKGNHTLKAPITAPPVHVAEANDDVAADDDD", "soluble on expression in E. coli": "soluble"}
{"sequence": "SVTSSQVMLMPAHDSAKPTGFGIMVTSLDLLRDHQKVIHTLWFIDDVVARELGGFDGFCRRERVLLLFVDSTNTTLSFTRNDMTCVPRQGGADSDHWLFKRHLALLLPLSFAQVYEGFISFYEEEDKHISWDIKSCSSSSHQ", "soluble on expression in E. coli": "not soluble"}
{"sequence": "MAHHHHHHMEKDGYTKLSEEEEQQLDNCRACMALTAVFMEEVMKPTEKLQHQLHQQQQQEGSAPRTPKNSDAVRSGERQRLVTNVHDAIDKLCDRVKERNNQVDASYDKGKEERDEKSESTEGGPIWYVSVNTAACEVALEEVSEALAREAFAQLLPERVAGTRGGGPSAVCEQENLCTARLSQHVKSEEEKAKAELEKEMRRQRELSRKNPKETLALQRAVAVGVGIMVIALWLRGRQSAKPEGDVKKD", "soluble on expression in E. coli": "not soluble"}
{"sequence": "MTRSRRGALARSSEGGPFPTADPVADRALCGWRVRSVIDLPELPLWTRDDRLPDVTIAFGRVTPVESASPGMNWHVVGEGRFRFTVASVGSYRISRGRVITIDPQAGVVASAVRQYLLGTAFGVLCHQRGLLPLHASCVAINGRAVAIAGASGAGKSSLAAALVRLGYPLLGDDVCVIDASEINAPHVLPAIPRLKLWRDVLDTFGLIVDPAARILEGIDKYQAQALADRPPPPPPQVPLPLGVVYYLDQAESPDDEGFHAIRGAERAAALAGAVYRRKMGLAMGLLPQIFTATMTVGALVPGHRLLRHGDLSGLDALARSVAARQEGRGLEHHHHHH", "soluble on expression in E. coli": "not soluble"}
{"sequence": "MWPSNRGPTLFQYSIRCLGFVAFIGVVRCHCPHMMGVKPPGPPSGPSPPGKFPDGDEGWDYDETAAPGIVPEPHFIQSTYIYRSPNVQEKTFSSRVVNVLKDIRTRLAKSARLTLENENIECSSPTDHYRCQEYPASGTWNYLIVEDQQKGAVTYTFDRKFNEKNDGTIEMALLDAFSRHSPSSLIAFASSEAEKEVGYIRALTVQEMDSLSGKRSHQKISMEKFGPNELILLEPALLEVRTGANLKLNSDSLRRIDSTKEFDKLLEEFRNVFILFWNSNRMVSLHTFNLWSRVADKIKISEDTLLAHVPCHDNADFCQGLNSEDYHTVVSYRNGQNTGKTENIGDVEFYENWVELSLSGAIQRLPNESKLSEFKKGIVGGKKRSSVTIGVFPSDQDTSFQHFQIAAEKLSGKYYVAYFINENSKPAITTYRHAEKQKRTDYSGKFDPATLMEFITKSSIPSIIGISNGFTTDLLFHQKRPILIQIGGAGEFEPFSKLSARQDARKTYIFTKIDGESEMIKKTKKALGVGENESIIVFLNKDRVHRIPISKPKCPDHLQKILQMIITSEADQVLSTKEPHPLRYLQVEKVNEVFGFEETLVLPDHTLFLDSDPFSRHPPITEGGGGGCPFMQGGGAPTESSQHSEL", "soluble on expression in E. coli": "not soluble"}
{"sequence": "MTPRIEVAAPKEPITINMNVKIEHEIIIKADKDVEELLETRSDLFLEHHHHHH", "soluble on expression in E. coli": "not soluble"}
{"sequence": "MPKVKTNRVKYPEGWELIEPTLRELDAKMREAETDSHDGKRKCETLWPIFKVSHQRSRYVYDLYYRREEISKELYEFCLDQGYADRSLIAKWKKSGYERLCCLRCIQPRDHNYGTTCVCRVPKHLREEKVVECVHCGCQGCASGD", "soluble on expression in E. coli": "not soluble"}
{"sequence": "MTTQTTPAHIAMFSIAAHGHVNPSLEVIRELVARGHRVTYAIPPVFADKVAATGPRPVLYHSTLPGPDADPEAWGSTLLDNVEPFLNDAIQALPQLADAYADDIPDLVLHDITSYPARVLARRWGVPAVSLSPNLVAWKGYEEEVAEPMWREPRQTERGRAYYARFEAWLKENGITEHPDTFASHPPRSLVLIPKALQPHADRVDEDVYTFVGACQGDRAEEGGWQRPAGAEKVVLVSLGSAFTKQPAFYRECVRAFGNLPGWHLVLQIGRKVTPAELGELPDNVEVHDWVPQLAILRQADLFVTHAGAGGSQEGLATATPMIAVPQAVDQFGNADMLQGLGVARKLATEEATADLLRETALALVDDPEVARRLRRIQAEMAQEGGTRRAADLIEAELPARHERQEPVGDRPNVGDRPAGVRSDRQRSAL", "soluble on expression in E. coli": "soluble"}
{"sequence": "MEIFMNYKKSNGLNYILISDTALFQGCSPVETEKLLSGMQFFTKAYKKGVPVYHAGTPVSDIGIVLHGVVQIENNDLWGNKNIISLAQAGEVFAEAYACIPGEPMMVDVIALEDCEILFLNVPRLFQLASSGKGEYSVLIRNLTMISARKNLLLSRRILHTSSKKIRGRLLSYLSHQAELQGSRYIDIPLNRQQLADYLSLDRSALSKELAKMKQDGLLDYHKNSFVLKNV", "soluble on expression in E. coli": "not soluble"}
{"sequence": "MKNTEIRKNIFPVGFYDDIHPDFSVNFQMNRCYTMTNDDVMLKEMREISPSIHNYEEFIEKFLELYNKALNEGHKLRAAYYLRTAEFYMTADHPQKQNYRKQFISLMQEYFNISDEQPYKVPYENGFLPAYRFTSEAPKGTIVMFGGFDSYVEEMFKMALFLKEAGYDVVFFDGPGQGSALEDYKIPMTHEWEKPVKSILDYFELDDVTLLGISLGGYLTVRAAAFEKRVHRVIADDILSNFYEVVLNTLPSQLKEKVNSLMSDGNEQEVNILFKDLMKKSLMVEWAINQGMHITGSKTPYEFLNKILLYNTSKISEKLEQDVLLMAAQEDHYIPLNQFFDQSKSLINVRSLTTRMFTRKETAQNHCQSGNLGLAFEVIANWIEQIQK", "soluble on expression in E. coli": "soluble"}
{"sequence": "MTSGTSVINDKVLQYETFISEVLRRDLQKVLEQRDAVYEKIAQYLQLKNTIQSIQESGSKELKTDVDLGCNFYVQAHVPDASRIYVAVGYGFFVEFTHAEALKFIEKKTNQLTEYTEVLTKDAAKIKANIRMVLEGLRELQGLKDLPEDRRREVF", "soluble on expression in E. coli": "not soluble"}
{"sequence": "MGHHHHHHSHMAFCAILLVPSLCRMPSLPTSPWAFPVHWAGFMFKPLDWQGNDFFPPQDEVLAPCLGIKTPLKHEPCASLPFSVLFQSSASQSLLGTMGSLSPHLCGHTMCPVNPELPLSFQADHRSAQPDACSPLCHPSSLLPSFHTASLPFSIHAHHSPLPCDLDPPLYLAETVSLLEEWGPPSSCPMQCKLTSHPARLTHLPPCLWGFAVALKPSWAGLAPSLLPPPRMSLCRPLSFLRHQCPWLPWQAHQGLVPWSPSMVAAACIVSPSGHCRCQPFIPHVFLGHGGLTSVSGECG", "soluble on expression in E. coli": "not soluble"}
{"sequence": "MGSDKIHHHHHHMSVLNAKECVSPITRSVKYHQQSAEIRALQLQSYKMAKMALDNNLKLVKDKKPAVILDLDETVLNTFDYAGYLIKNCIKYTPETWDKFEKEGSLTLIPGALDFLEYANSKGVKIFYISNRTQKNKAFTLKTLKSFKLPQVSEESVLLKEKGKPKAVRRELVAKDYAIVLQVGDTLHDFDAIFAKDAKNSQEQRAKVLQNAQKFGTEWIILPNSLYGTWEDEPIKAWQNKK", "soluble on expression in E. coli": "not soluble"}
{"sequence": "MSLNAGAVKLDESMTPMQAMAAVAAECVDHIARNAAVLAEVDTLGVYRAGTPEHVHQLRVGVRRLRSAWRLFDGWIADPSETLAQGARTHFSAFGMARDQDVLADTIMPLLARAGMPALPAEAAPSNDNAQSLAADRAFQGWLLELLAWSLDVPAEAAPPALRKRLTGRLRRWHLKVIDEGLRFGALELEARHELRKRVKRLRYGLSFAESLLPAARLRTYRKQLARVQDLLGEINDLAVARDYYQAALQAHPQAWFAVGWIGARLDGLTPQAQEAFDQLAHAKPFWKEGHHHHHH", "soluble on expression in E. coli": "not soluble"}
{"sequence": "MGSDKIHHHHHHMKLLWFAHRDIKHPKAGGAERTIYEVGKRLSKLNIGVNLVTVNPGNLLEYENVDGIIIYRIKGNIRTHLYVRKMIKKINPDVIIDDMGHAVPWFSPWFTDKRVIVFFRHLHAKSLPGQVNFFLAKIITLVEKLYPIIYKNNIFVTESDTSENDLIDLGIKKDRIVRIPPGVDLNLFHTGKKTDNVQLLYFGGLRKYKRPEYAITIYENLYKKIDNLKLIIVGDGILLNEIKDKVKGKNYNIVFTGKLEYDELAKIIRESWVNLHFSVTEGWGYSILEASASGTPSVAFKVPGVVDTIIDGYNGFLVNNINEFTDKILYIIKNEDKFILNSRKFAENFTWEKTADLWYKLLNGN", "soluble on expression in E. coli": "not soluble"}
{"sequence": "MKLIAVLNLLNQLSNKNSLEEYLNGVIDFLSGWTGCENIGIRVLREAGLAPYVVHRGFDKDFIASESCISVEGDECVCLRVLKQQFKSEDQDHISAAGTYYAPNFYRYVEELREDQLLNFRGLCAHKQFKSLAVIPLLHQGKVVGAIHIADIKDGVFSEEDIHFIETIRPLVAEAIYRHNLEKALEHHHHHH", "soluble on expression in E. coli": "not soluble"}
{"sequence": "MKLSKIKLPYFMNELTLTELDMGVAVPKILQAFKPYVDHQGLWIDLEMSYNGSFLMTLETKMNLTKLGKEPLVEALKVGEIGKEGCRPRAFCLADSDEESSSAGSSEEDDAPEPSGGDKQLLPGAEGYVGGHRTSKIMRFVDKITKSKYFQKATETEFIKKKIEEVSNTPLLLTVEVQECRGTLAVNIPPPPTDRVWYGFRKPPHVELKARPKLGEREVTLVHVTDWIEKKLEQEFQKVFVMPNMDDVYITIMHSAMDPRSTSCLLKDPPVEAADQP", "soluble on expression in E. coli": "not soluble"}
{"sequence": "MGSDKIHHHHHHMTEKIRVAVVGAAGAFGMKHLDGLMNIPDVEVTVVSGTRLEPTQAVAEKYGVENAVVGLDAVLERDDVDAVILATPTGLHASQTQAVLAAGKHVQVEIPLADSIVDAEAALEAAESSNRVAMVGHTRRFNPSHQLVHNRIASGEFHVQQMDVQTYFFRRTNTNAKGEARSWTDHLLWHHAAHTVDLFAYQAGKIVHANAIQGPIHPELGIAMDMSIQLKSESGAICTLSLSFNNNGPFGTFFRYIGDTETYIARYDDLYNGREEPIDVSHVAVSMNGIELQDREFISAIREGREPNSSLRHVIDCYRVLGSLEKQLS", "soluble on expression in E. coli": "not soluble"}
